Literature values in article PMC8438204, “Unraveling the Thermodynamics of Ultra-tight Binding of Intrinsically Disordered Proteins” (Frontiers in Molecular Biosciences, 2021).

Molecular target: prothymosin α (Homo sapiens) (UniProt P06454)
Sequence (P06454 2-111): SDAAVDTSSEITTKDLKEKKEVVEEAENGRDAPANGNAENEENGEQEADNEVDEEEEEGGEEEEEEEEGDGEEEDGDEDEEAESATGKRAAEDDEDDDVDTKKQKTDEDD

histone H1, sequence (P07305 2-194): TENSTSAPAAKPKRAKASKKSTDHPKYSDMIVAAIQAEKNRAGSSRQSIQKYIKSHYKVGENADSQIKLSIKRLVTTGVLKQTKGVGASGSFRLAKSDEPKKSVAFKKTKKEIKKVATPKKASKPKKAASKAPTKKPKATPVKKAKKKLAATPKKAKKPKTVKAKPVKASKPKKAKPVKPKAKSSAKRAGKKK

In the case of histone H1 (from UniProt P07305), the Kd is listed as 2 pM.
